Test results reported in patent US20210171647A1 (WUXI BIOLOGICS SHANGHAI, published 2021).
Where a chain is given by its changes, count along the chain named.

Assays:
Assay in all cases: ELISA, antibody coated, OX40-ECD.His mutant supernatant; relative to silent alanine substitutions;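 further: captured OX40 mutant protein detected with HRP-labelled anti-His antibody, absorbance read-out, scaled to the mean signal of control mutants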
human OX40-ECD.His R58A = target: T1, human OX40-ECD.His R58A (human, UniProt P43489 29-214)
T1 construct: extracellular domain; not shown: C-terminal His-tag
T1 sequence (looked up): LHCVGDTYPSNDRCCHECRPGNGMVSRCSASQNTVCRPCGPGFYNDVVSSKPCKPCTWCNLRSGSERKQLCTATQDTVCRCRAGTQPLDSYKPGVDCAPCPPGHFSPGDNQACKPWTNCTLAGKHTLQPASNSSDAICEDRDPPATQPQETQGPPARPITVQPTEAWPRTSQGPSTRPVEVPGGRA

human OX40-ECD.His T148A = target: T2, human OX40-ECD.His T148A (human, UniProt P43489 29-214)
T2 construct: extracellular domain; not shown: C-terminal His-tag
T2 sequence (looked up): T1 sequence (looked up) with A30R, T120A

human OX40-ECD.His V32A = target: T3, human OX40-ECD.His V32A (human, UniProt P43489 29-214)
T3 construct: extracellular domain; not shown: C-terminal His-tag
T3 sequence (looked up): T1 sequence (looked up) with V4A, A30R

human OX40-ECD.His N146A = target: T4, human OX40-ECD.His N146A (human, UniProt P43489 29-214)
T4 construct: extracellular domain; not shown: C-terminal His-tag
T4 sequence (looked up): T1 sequence (looked up) with A30R, N118A

human OX40-ECD.His G151A = target: T5, human OX40-ECD.His G151A (human, UniProt P43489 29-214)
T5 construct: extracellular domain; not shown: C-terminal His-tag
T5 sequence (looked up): T1 sequence (looked up) with A30R, G123A

human OX40-ECD.His T105A = target: T6, human OX40-ECD.His T105A (human, UniProt P43489 29-214)
T6 construct: extracellular domain; not shown: C-terminal His-tag
T6 sequence (looked up): T1 sequence (looked up) with A30R, T77A

human OX40-ECD.His V63A = target: T7, human OX40-ECD.His V63A (human, UniProt P43489 29-214)
T7 construct: extracellular domain; not shown: C-terminal His-tag
T7 sequence (looked up): T1 sequence (looked up) with A30R, V35A

human OX40-ECD.His K120A = target: T8, human OX40-ECD.His K120A (human, UniProt P43489 29-214)
T8 construct: extracellular domain; not shown: C-terminal His-tag
T8 sequence (looked up): T1 sequence (looked up) with A30R, K92A

human OX40-ECD.His P129A = target: T9, human OX40-ECD.His P129A (human, UniProt P43489 29-214)
T9 construct: extracellular domain; not shown: C-terminal His-tag
T9 sequence (looked up): T1 sequence (looked up) with A30R, P101A

human OX40-ECD.His A126G = target: T10, human OX40-ECD.His A126G (human, UniProt P43489 29-214)
T10 construct: extracellular domain; not shown: C-terminal His-tag
T10 sequence (looked up): T1 sequence (looked up) with A30R, A98G

- Fold Change (human OX40-ECD.His R58A): 1
- Fold Change (human OX40-ECD.His T148A): 1
- Fold Change (human OX40-ECD.His V32A): 1.01
- Fold Change (human OX40-ECD.His N146A): 0.73
- Fold Change (human OX40-ECD.His G151A): 0.742
- Fold Change (human OX40-ECD.His T105A): 0.787
- Fold Change (human OX40-ECD.His V63A): 0.886
- Fold Change (human OX40-ECD.His K120A): 0.896
- Fold Change (human OX40-ECD.His P129A): 0.907
- Fold Change (human OX40-ECD.His A126G): 0.954
B1: 1.134.9-u1-IgG1L (antibody, V domains shown)
VH: QVQLQESGPGLVKPSGTLSLTCAVSGGSISSYNWWSWVRQPPGKGLEWIGEIYHGGNTNYNPSLKSRVTMSVDNSKNQFSLKLSSVTAADTAVYYCARAPGDWGGSPYFDFWGQGTLVTVSS
VL: SSELTQDPAVSVALGQTVRITCQGDNLRTYYASWYQQKPGQAPILLIYGRNKRPSGIPDRFSGSSSGNTASLTITGAQAEDEAAYYCNSRDSSGNPVVFGGGTKLTVL
notes: fully human IgG1, lambda
